These results are taken from article PMC3592467.

The target in this experiment is T1, MBD3-GFP, O95983.
T1 chain: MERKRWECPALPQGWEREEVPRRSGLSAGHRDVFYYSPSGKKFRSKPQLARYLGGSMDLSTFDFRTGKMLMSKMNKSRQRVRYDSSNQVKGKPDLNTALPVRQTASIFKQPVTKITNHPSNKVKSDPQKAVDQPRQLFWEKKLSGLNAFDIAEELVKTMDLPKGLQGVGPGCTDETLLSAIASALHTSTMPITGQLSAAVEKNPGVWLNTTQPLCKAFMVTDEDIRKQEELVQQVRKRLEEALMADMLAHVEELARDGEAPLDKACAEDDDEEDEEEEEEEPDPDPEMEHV
In words: affinity purification with mass spectrometry. Conditions: remark: other sources report otherwise.

B1: DOC-1, O14519 1-115 (natural protein)
chain: MSYKPNLAAHMPAAALNAAGSVHSPSTSMATSSQYRQLLSDYGPPSLGYTQGTGNSQVPQSKYAELLAIIEELGKEIRPTYAGSKSAMERLKRGIIHARGLVRECLAETERNARS
As to B1, the stoichiometry N – broadly, a count of units in the complex or per binding partner – was 2 per MBD3.
